Data reported in patent US20250257130A1 (NONA BIOSCIENCES SUZHOU, published 2025).

B1: PR303147 (antibody, human IgG1, V domains shown)
VH: EVQLVESGGGLVQPGGSLRLSCAASGFTFSNFWMYWVRQAPGKGLVWVSRINSDGSSTNYADSVKGRFTISRDNAKNTLYLQMNSLRVEDTAVYSCAREGSGWYEDFDYWGQGTLVTVSS
notes: HCAb (heavy chain-only, human IgG1 Fc), no light chain
B2: PR007411 (antibody, V domains shown)
VH: EVQLVESGGGLVKPGGSLRLSCAASGFTFSDFYMSWIRQAPGKGLEWISYISSSGSTIHYADSVKGRFTISRDNAKNSLYLQMNSLRAEDTAIYYCARDMPSSSSDWVDLQFDYWGQGTLVTVSS
notes: bivalent form (HCAb) variant of PR005340, no light chain
B3: PR007414 (antibody, V domains shown)
VH: EVQLVESGGGLVKPGGSLRLSCAASGFTFSDFYMSWIRQAPGKGLEWISYISSSGSTRYYADSVKGRFTISRDNAKNSLYLQMNSLRAEDTAIYYCARDMPSSSSDWVDLQFDYWGQGTLVTVSS
notes: as for B2
B4: PR007408 (antibody, V domains shown)
VH: EVQLVESGGGLVKPGGSLRLSCAASGFTFSDFYMSWIRQAPGKGLEWISYISSSGSYIHYADSVKGRFTISRDNAKNSLYLQMNSLRAEDTAIYYCARDMPSSSSDWVDLQFDYWGQGTLVTVSS
notes: as for B2
B5: PR007422 (antibody, V domains shown)
VH: EVQLVESGGGLVKPGGSLRLSCAASGFTFSDFYMSWIRQAPGKGLEWISYIDSSGRPLAYADSVKGRFTISRDNAKNSLYLQMNSLRAEDTAIYYCARDIPSSSSDWVSLQFDYWGQGTLVTVSS
notes: as for B2
B6: PR007420 (antibody, V domains shown)
VH: EVQLVESGGGLVKPGGSLRLSCAASGFTFSDFYMSWIRQAPGKGLEWISYISSSGSTRYYADSVKGRFTISRDNAKNSLYLQMNSLRAEDTAIYYCARDMPSSSSDWVSLQFDYWGQGTLVTVSS
notes: as for B2
B7: PR007415 (antibody, V domains shown)
VH: EVQLVESGGGLVKPGGSLRLSCAASGFTFSDFYMSWIRQAPGKGLEWISYIDSSGRPLAYADSVKGRFTISRDNAKNSLYLQMNSLRAEDTAIYYCARDMPSSSSDWVDLQFDYWGQGTLVTVSS
notes: as for B2
B8: PR007416 (antibody, V domains shown)
VH: EVQLVESGGGLVKPGGSLRLSCAASGFTFSDFYMSWIRQAPGKGLEWISYINTRGSPIGYADSVKGRFTISRDNAKNSLYLQMNSLRAEDTAIYYCARDIPSSSSDWVDLQFDYWGQGTLVTVSS
notes: as for B2
B9: PR007410 (antibody, V domains shown)
VH: EVQLVESGGGLVKPGGSLRLSCAASGFTFSDFYMSWIRQAPGKGLEWISYISSSGSYIHYADSVKGRFTISRDNAKNSLYLQMNSLRAEDTAIYYCARDIPSSSSDWVDLQFDYWGQGTLVTVSS
notes: as for B2
B10: PR007409 (antibody, V domains shown)
VH: EVQLVESGGGLVKPGGSLRLSCAASGFTFSDFYMSWIRQAPGKGLEWISYISSSGSWIHYADSVKGRFTISRDNAKNSLYLQMNSLRAEDTAIYYCARDIPSSSSDWVDLQFDYWGQGTLVTVSS
notes: as for B2
B11: PR007423 (antibody, V domains shown)
VH: EVQLVESGGGLVKPGGSLRLSCAASGFTFSDYYMSWIRQAPGKGLEWISYIDSSGRPLAYADSVKGRFTISRDNAKNSLYLQMNSLRAEDTAIYYCARDIPSSSSDWVDLQFDYWGQGTLVTVSS
notes: as for B2
B12: PR007412 (antibody, V domains shown)
VH: EVQLVESGGGLVKPGGSLRLSCAASGFTFSDFYMSWIRQAPGKGLEWISYISSSGSWIHYADSVKGRFTISRDNAKNSLYLQMNSLRAEDTAIYYCARDMPSSSSDWVSLQFDYWGQGTLVTVSS
notes: as for B2
B13: PR007418 (antibody, V domains shown)
VH: EVQLVESGGGLVKPGGSLRLSCAASGFTFSDFYMSWIRQAPGKGLEWISYIDSSGRPLAYADSVKGRFTISRDNAKNSLYLQMNSLRAEDTAIYYCARDIPSSSSDWVDLQFDYWGQGTLVTVSS
notes: as for B2
B14: PR007413 (antibody, V domains shown)
VH: EVQLVESGGGLVKPGGSLRLSCAASGFTFSDFYMSWIRQAPGKGLEWISYINTRGSPIGYADSVKGRFTISRDNAKNSLYLQMNSLRAEDTAIYYCARDMPSSSSDWVDLQFDYWGQGTLVTVSS
notes: as for B2
B15: PR007419 (antibody, V domains shown)
VH: EVQLVESGGGLVKPGGSLRLSCAASGFTFSDFYMSWIRQAPGKGLEWISYINTRGSPIGYADSVKGRFTISRDNAKNSLYLQMNSLRAEDTAIYYCARDMPSSSSDWVSLQFDYWGQGTLVTVSS
notes: as for B2

Legend:
[1] = target: T1, human ROR1 on cells (HEK293T-hROR1, PANC-1, A549) (human, UniProt Q01973 30-937); experiment: flow cytometry, A549 cells
T1 construct: whole, on cells; one molecule for the three cell lines; also called huROR1; cell surface ROR1
Description: (§1) In brief, anti-ROR1 antibodies were serially diluted in staining buffer (PBS containing 2% FBS). Antibody solution was incubated with 1×10⁵ cells at 4° C. for 1 hour. […] After 1-hour incubation at 4° C., cells were washed twice with staining buffer and subjected to flow cytometry. PR000374 (Bench marker 1) and non-relevant IgG isotype control (Crownbio) were used as positive and negative controls, respectively.

[2] = target: T1, human ROR1 on cells (HEK293T-hROR1, …); experiment: flow cytometry, PANC-1 cells
Description: as §1

[3] = target: T2, Human ROR1-ECD-his (Acro Biosystems RO1-H522y) (human, UniProt Q01973 30-406); experiment: ELISA, coated hu-ROR1-ECD-his
T2 construct: extracellular domain; bought protein; also called hROR1-ECD-his; hu-ROR1-ECD-his
Description: (§2) Binding of recombinant anti-ROR1 antibodies to hu-ROR1-ECD-his was tested by ELISA. In brief, 1 μg/mL hu-ROR1-ECD-his was added to the 96-well plate, 100 μL each well, incubated at 4° C. overnight, washing the plates with 1×PBST 3 times, 300 ul/well, blocking the plates with 2% BSA in 1×PBST, 200 ul/well at 37° C. for 1 hour, anti-ROR1 antibodies were serially diluted in staining buffer (PBS containing 2% BSA). Antibody solution was added to the plate and incubates at 37° C. for 1 hour, washing the plates with 1×PBST 3 times, 300 ul/well, adding secondary antibody 100 ul/well and incubate at 37° C. for 1 hour, washing the plates with 1×PBST 3 times, 300 ul/well and then add 100 ul/well TMB for about 5 min, stop the reaction by adding 100 ul/well 2M H₂SO₄, read the plates with Molecular device spectra max plus384 at 450 nm and 570 nm.

[4] = target: T1, human ROR1 on cells (HEK293T-hROR1, …); experiment: flow cytometry, HEK293T-hROR1 cells
Description: as §1

[5] = target: T3, cynomolgus ROR1 on CHO-K1-cynoROR1 cells (cynomolgus monkey, UniProt A0A2K5WTX7 30-937); experiment: flow cytometry, CHO-K1-cynoROR1 cells
T3 construct: whole, on cells
Description: as §1

[6] = target: T2, Human ROR1-ECD-his (Acro Biosystems …); experiment: BLI, ROR1-His on HIS1K sensor, antibody in solution
Description: In the example, binding kinetics of anti-ROR1 antibodies to soluble ROR1 protein were analyzed by using Bio-Layer Interferometry (BLI) analysis on Fortebio Octet Red384 instrument (Fortebio).
In BLI analysis, recombinant anti-ROR1 antibodies was serially diluted with 10× kinetics buffer (Fortebio). Human ROR1-His proteins were diluted to 20 nM. Then the diluted antibodies, ROR1 proteins and regeneration buffer (10 mM glycine HCl pH 1.5) were added to 96-well plates (Greiner). Rate constants for association and dissociation were measured using HIS1K sensor (Fortebio). The sensor surface was regenerated after each binding experiment with regeneration buffer. The traces were processed using Octet Data Analysis Software (version 11.0, Pall ForteBio, CA, USA).

[7] = target: T2, Human ROR1-ECD-his (Acro Biosystems …); experiment: ELISA, plate coated with hu-ROR1-his at 1 µg/mL
Description: as §2

[8] = target: T4, hu-ROR2-ECD-his (Acrobiosystems RO2-H52E5) (human, UniProt Q01974 34-403); experiment: ELISA, plate coated with hu-ROR2-his at 1 µg/mL
T4 construct: extracellular domain; bought protein; also called Human ROR2 his-tagged protein; Human ROR2, His Tag
Description: as §2, with “1” for “Binding of recombinant anti-ROR1 antibodies to hu-ROR1-ECD-his was tested by ELISA. In brief, 1”, “hu-ROR2-ECD-his (Acrobiocystems, RO2-H52E5)” for “hu-ROR1-ECD-his”

[9] = target: T1, human ROR1 on cells (HEK293T-hROR1, …); experiment: flow cytometry on HEK293T-hROR1 cells, MFI (Mean)
Description: Binding of recombinant anti-ROR1 antibodies to human or cynomolgus ROR1-overexpressing cells was tested by flow cytometry. In this example, ROR1-expressing cell lines are HEK293T cell lines that had been transfected to express human ROR1 on the surface (HEK293T-hu ROR1, KYINNO BIOTECHNOLOGY CO., LTD, Catalog #KC-1018), CHO-K1 cell lines that had been transfected to express cynomolgus ROR1 (CHOK1-cyno ROR1), PANC-1 (ATCC, catalog: CRL-1469) or A549 cell lines (Shanghai Institute of Biochemistry and Cell Biology, Chinese Academy of Sciences).
as §1

[10] = target: T1, human ROR1 on cells (HEK293T-hROR1, …); experiment: flow cytometry, PANC-1 cells; remark: listed apart in the source
Description: as §1
Binding activity of the variants to PANC-1 cells were tested using the same method described in example 5.1. The results were shown in FIGS. 7-8 and Table 11 and Table 12.

[11] = target: T1, human ROR1 on cells (HEK293T-hROR1, …); experiment: flow cytometry on PANC-1 cells, MFI (Median-APC) [top panel]
[12] = target: T1, human ROR1 on cells (HEK293T-hROR1, …); experiment: flow cytometry on PANC-1 cells, MFI (Median-APC) [middle panel, letter not given]
[13] = target: T1, human ROR1 on cells (HEK293T-hROR1, …); experiment: flow cytometry on PANC-1 cells, MFI (Median-APC) [bottom panel, letter not given]

T1 sequence (Q01973 30-937): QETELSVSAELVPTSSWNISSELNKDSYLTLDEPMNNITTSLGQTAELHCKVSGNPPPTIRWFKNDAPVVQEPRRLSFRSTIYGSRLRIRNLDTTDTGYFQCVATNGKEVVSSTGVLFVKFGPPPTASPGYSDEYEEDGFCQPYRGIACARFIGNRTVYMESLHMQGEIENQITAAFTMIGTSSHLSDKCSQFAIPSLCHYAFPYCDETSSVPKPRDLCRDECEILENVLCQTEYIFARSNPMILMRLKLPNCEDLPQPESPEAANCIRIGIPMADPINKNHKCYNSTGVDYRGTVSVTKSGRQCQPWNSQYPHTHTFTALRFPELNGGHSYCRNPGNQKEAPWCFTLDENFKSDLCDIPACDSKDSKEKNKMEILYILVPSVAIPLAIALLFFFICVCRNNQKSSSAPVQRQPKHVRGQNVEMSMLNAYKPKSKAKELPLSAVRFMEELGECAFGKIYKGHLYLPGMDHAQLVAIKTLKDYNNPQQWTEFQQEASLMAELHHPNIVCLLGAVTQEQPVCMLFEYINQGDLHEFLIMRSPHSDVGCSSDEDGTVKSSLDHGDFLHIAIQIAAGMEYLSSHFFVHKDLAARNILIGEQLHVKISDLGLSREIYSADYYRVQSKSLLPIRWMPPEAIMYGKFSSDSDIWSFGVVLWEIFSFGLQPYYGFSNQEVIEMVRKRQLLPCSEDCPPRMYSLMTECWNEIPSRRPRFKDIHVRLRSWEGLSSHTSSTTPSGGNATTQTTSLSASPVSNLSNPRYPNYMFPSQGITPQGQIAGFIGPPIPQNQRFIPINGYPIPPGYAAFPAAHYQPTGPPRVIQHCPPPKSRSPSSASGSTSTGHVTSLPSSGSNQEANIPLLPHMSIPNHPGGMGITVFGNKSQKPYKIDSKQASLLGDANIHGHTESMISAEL
T2 sequence (Q01973 30-406): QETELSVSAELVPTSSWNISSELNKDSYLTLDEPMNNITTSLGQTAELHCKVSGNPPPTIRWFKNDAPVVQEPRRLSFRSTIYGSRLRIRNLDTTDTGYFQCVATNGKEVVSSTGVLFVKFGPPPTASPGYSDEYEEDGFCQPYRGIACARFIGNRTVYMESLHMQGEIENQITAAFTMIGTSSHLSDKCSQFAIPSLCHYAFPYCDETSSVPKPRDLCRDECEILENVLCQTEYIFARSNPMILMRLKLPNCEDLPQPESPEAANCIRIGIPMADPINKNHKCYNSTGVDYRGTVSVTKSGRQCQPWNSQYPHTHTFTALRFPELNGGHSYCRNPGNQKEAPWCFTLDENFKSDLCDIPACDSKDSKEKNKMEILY
T4 sequence (Q01974 34-403): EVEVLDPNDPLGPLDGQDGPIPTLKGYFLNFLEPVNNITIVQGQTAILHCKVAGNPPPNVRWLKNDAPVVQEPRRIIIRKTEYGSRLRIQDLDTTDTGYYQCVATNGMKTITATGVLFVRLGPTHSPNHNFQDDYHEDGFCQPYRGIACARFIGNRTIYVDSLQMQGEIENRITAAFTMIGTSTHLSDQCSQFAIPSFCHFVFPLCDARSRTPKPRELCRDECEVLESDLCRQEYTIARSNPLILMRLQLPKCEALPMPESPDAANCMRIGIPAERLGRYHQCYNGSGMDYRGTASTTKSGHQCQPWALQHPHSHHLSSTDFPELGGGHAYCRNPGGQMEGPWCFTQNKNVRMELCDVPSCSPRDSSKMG

| Binder | TOP [10] | EC50 (read off the curve) [11] [nM] | EC50 (read off the curve) [12] [nM] | other results |
| --- | --- | --- | --- | --- |
| B1 |  |  |  | EC50 [1]: 6.46 µg/mL; MAX(MFI) [1]: 412000 MFI; EC50 [2]: 7.77 µg/mL; MAX(MFI) [2]: 291000 MFI; EC50 [3]: 0.023 µg/mL; EC50 [4]: 0.325 µg/mL; MAX(MFI) [4]: 1.46e+07 MFI; EC50 [5]: 1.26 µg/mL; MAX(MFI) [5]: 3.67e+06 MFI; Kd [6]: 11.2 nM; koff [6]: 0.0165 s⁻¹; kon [6]: 1.47e+06 M⁻¹ s⁻¹; EC50 (read off the curve) [7]: ~0.02 µg/mL; binding result [8]: no binding (tested: about 15 µg/ml); EC50 (read off the curve) [9]: ~0.3 µg/mL |
| B2 | 81400 | ~0.7 |  |  |
| B3 | 88900 |  | ~0.5 |  |
| B4 | 87000 | ~0.4 |  |  |
| B5 | 73600 |  |  | EC50 (read off the curve) [13]: ~0.6 nM |
| B6 | 79500 |  |  | EC50 (read off the curve) [13]: ~0.7 nM |
| B7 | 82800 |  | ~0.4 |  |
| B8 | 87600 |  | ~0.7 |  |
| B9 | 80300 | ~0.8 |  |  |
| B10 | 87400 | ~0.8 |  |  |
| B11 | 74500 |  |  | EC50 (read off the curve) [13]: ~0.4 nM |
| B12 | 77200 | ~0.5 |  |  |
| B13 | 81300 |  | ~0.4 |  |
| B14 | 89800 |  | ~0.6 |  |
| B15 | 75700 |  |  | EC50 (read off the curve) [13]: ~0.8 nM |
